One may read the stoichiometry N as the number of molecules, sites or subunits per partner or assembly.

For the assay, the target named is pyruvate kinase M2 (PKM2) (human (endogenous in monocytes and macrophages)) (UniProt P14618). Kind of assay: cross-linking.

Sequence of pyruvate kinase M2 (PKM2), P14618 1-531 (enzyme; other documents disagree on this pair) (P14618 whole entry): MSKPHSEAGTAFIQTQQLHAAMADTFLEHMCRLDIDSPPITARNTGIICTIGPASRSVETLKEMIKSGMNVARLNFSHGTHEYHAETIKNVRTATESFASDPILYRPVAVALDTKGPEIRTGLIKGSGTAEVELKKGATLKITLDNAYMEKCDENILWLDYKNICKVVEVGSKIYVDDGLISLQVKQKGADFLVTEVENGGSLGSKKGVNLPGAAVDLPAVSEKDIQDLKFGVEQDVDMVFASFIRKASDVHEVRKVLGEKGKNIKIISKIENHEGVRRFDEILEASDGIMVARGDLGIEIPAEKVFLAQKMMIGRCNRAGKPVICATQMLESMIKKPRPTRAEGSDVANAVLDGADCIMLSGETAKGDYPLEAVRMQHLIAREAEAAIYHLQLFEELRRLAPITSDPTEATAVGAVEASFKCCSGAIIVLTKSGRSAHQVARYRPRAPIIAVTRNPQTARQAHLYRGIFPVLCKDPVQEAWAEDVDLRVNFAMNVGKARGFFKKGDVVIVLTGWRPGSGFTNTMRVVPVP

“pyruvate kinase M2 (PKM2), P14618 1-531 (enzyme; other documents disagree on this pair)” yielded a stoichiometry N of 2.
